Experimental data published in publication PMC11189427 (Scientific Reports, 2024).
Values joined by “and” are separate entries in the source; they are usually repeats but may differ in a detail not shown here. Equal values may be shown once.

Molecular target: the molecule itself
Experiment: cryo-EM structure

B1: Hendra henipavirus nucleoprotein (natural protein)
chain: MSDIFDEAASFRSYQSKLGRDGRASAATATLTTKIRIFVPATNSPELRWELTLFALDVIRSPSAAESMKIGAAFTLISMYSERPGALIRSLLNDPDIEAVIIDVGSMLNGIPVMERRGDKAQEEMEGLMRILKTARESSKGKTPFVDSRAYGLRITDMSTLVSAVITIEAQIWILIAKAVTAPDTAEESETRRWAKYVQQKRVNPFFALTQQWLTEMRNLLSQSLSVRKFMVEILMEVKKGGSAKGRAVEIISDIGNYVEETGMAGFFATIRFGLETRYPALALNEFQSDLNTIKGLMLLYREIGPRAPYMVLLEESIQTKFAPGGYPLLWSFAMGVATTIDRSMGALNINRGYLEPMYFRLGQKSARHHAGGIDQNMANKLGLNSDQVAELAAAVQETSVGRQDNNMQAREAKFAAGGVLVGGGEQDIDEEEEPIEHSGRQSVTFKREMSMSSLADSVPSSSVSTSGGTRLTNSLLNLRSRLAAKAIKESTAQSSSERNPPNNRPQADSGRKDDQEPKPAQNDLDFVRADV
notes: copies: 28
- stoichiometry N: 14 protomers per ring and 28 protomers per double-ring assembly
